Reference: paper PMC3043092

What was measured:
[1] = biological target: Pisum sativum thioredoxin f (Pisum sativum); test: SEC; Superdex 75 HR 16/60, 1 ml/min, 25°C; 100 µl at 24 µM loaded; 50 mM buffer with 150 mM NaCl, pH >= 7.0; no reducing agent
[2] = biological target: Pisum sativum thioredoxin h1 (Pisum sativum); test: as above

## Pisum sativum thioredoxin f (natural protein)
[1]
  stoichiometry N: 2

## Pisum sativum thioredoxin h1 (natural protein)
[2]
  stoichiometry N: 2
